Data on one protein can be found in patent US20060258562.

The target of the data set is STAT3 (Signal Transducer and Activator of Transcription 3), P42227.
STAT3 (Signal Transducer and Activator of Transcription 3), P42227, sequence (P42227 2-770): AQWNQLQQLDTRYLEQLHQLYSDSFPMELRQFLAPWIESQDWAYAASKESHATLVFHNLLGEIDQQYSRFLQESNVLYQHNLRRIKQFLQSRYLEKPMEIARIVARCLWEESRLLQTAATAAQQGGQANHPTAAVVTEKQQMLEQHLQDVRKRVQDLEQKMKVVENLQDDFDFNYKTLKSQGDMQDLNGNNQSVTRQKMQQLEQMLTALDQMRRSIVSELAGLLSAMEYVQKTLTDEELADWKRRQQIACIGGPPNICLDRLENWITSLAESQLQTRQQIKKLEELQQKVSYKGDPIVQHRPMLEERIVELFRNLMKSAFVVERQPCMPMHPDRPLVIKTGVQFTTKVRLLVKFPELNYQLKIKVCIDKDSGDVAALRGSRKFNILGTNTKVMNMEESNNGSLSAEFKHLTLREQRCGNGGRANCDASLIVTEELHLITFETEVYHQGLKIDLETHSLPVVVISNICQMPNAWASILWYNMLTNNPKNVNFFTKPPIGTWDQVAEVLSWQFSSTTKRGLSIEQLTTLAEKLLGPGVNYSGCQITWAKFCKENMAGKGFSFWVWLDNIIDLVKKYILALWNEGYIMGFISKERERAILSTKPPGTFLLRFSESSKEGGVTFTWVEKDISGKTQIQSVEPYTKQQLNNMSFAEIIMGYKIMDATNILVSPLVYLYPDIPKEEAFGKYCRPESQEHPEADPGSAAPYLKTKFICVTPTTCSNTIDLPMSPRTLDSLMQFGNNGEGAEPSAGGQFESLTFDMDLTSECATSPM

B1: PKCδ (protein kinase C delta) (protein)
chain: MAPFLRISFNSYELGSLQVEDEASQPFCAVKMKEALSTERGKTLVQKKPTMYPEWKTTFDAHIYEGRVIQIVLMRAAEDPVSEVTVGVSVLAERCKKNNGKAEFWLDLQPQAKVLMCVQYFLEDGDCKQSMRSEEEAKFPTMNRRGAIKQAKIHYIKNHEFIATFFGQPTFCSVCKEFVWGLNKQGYKCRQCNAAIHKKCIDKIIGRCTGTATNSRDTIFQKERFNIDMPHRFKVYNYMSPTFCDHCGSLLWGLVKQGLKCEDCGMNVHHKCREKVANLCGINQKLLAEALNQVTQRSSRKLDTTESVGIYQGFEKKPEVSGSDILDNNGTYGKIWEGSTRCTLENFTFQKVLGKGSFGKVLLAELKGKDKYFAIKCLKKDVVLIDDDVECTMVEKRVLALAWESPFLTHLICTFQTKDHLFFVMEFLNGGDLMFHIQDKGRFELYRATFYAAEIICGLQFLHSKGIIYRDLKLDNVMLDRDGHIKIADFGMCKENIFGEGRASTFCGTPDYIAPEILQGLKYSFSVDWWSFGVLLYEMLIGQSPFHGDDEDELFESIRVDTPHYPRWITKESKDIMEKLFERDPDKRLGVTGNIRIHPFFKTINWSLLEKRKVEPPFKPKVKSPSDYSNFDPEFLNEKPQLSFSDKNLIDSMDQEAFHGFSFVNPKFEQFLDI
For B1, the “immunofluorescence with antiphospho-Tyr-705-STAT3 antibody after insulin stimulation, with or without rottlerin” value is “Following insulin stimulation, PKCδ is activated and in turn phosphorylates and activates STAT3”.
